Consider four molecules from patent publication US20070258981A1 (published 2007).

Residue numbers refer to the chain shown, from its start. Names may count otherwise.

Experiment [1] addresses T1, human CD22 (hCD22) expressed on the cell surface (human, UniProt P20273 20-847).
T1 construct: whole, on cells; Used as capture agent in the BHK-CD22 cell ELISA and as target in flow cytometry; also called BHK-CD22; hCD22 expressing CHO cells
The experiment is described as follows: BHK-CD22 cell ELISA. In general terms: In an ELISA, binding on a coated surface is turned into a signal by an enzyme label.

Experiment [2] concerns the target hCD22 immobilised on a CM5 sensor chip (BIAcore ligand) (human, UniProt P20273 20-687, limits assumed). The experiment is described as follows: BIAcore 3000 SPR; hCD22 amine-coupled to CM5 chip, IgG injected; global 1:1 fit. On the procedure:
Binding affinity of HB22.7 and RHOv2ACD/RKA were determined on a BIAcore 3000 instrument (BIAcore, Inc., Uppsala, Sweden). The ligand, hCD22, was prepared at 50 nM in 10 mM NaOAc, pH4 buffer. It was injected onto an EDC/NHS-activated CM5 sensor chip (BIAcore, Inc. Uppsala, Sweden) using a standard immobilization protocol. Following this, any unreacted active ester moieties were quenched using 1M Et-NH2 (ethanolamine; coupling reagents purchased from BIAcore, Inc.). A total of 535 and 689 RUs hCD22 remained bound to two sensor chip surfaces used in these experiments. Separately, a blank surface was prepared on each sensor chip using the identical protocol (minus protein). The blank surfaces were used as a reference cell in the experiments, and served to correct for both non-specific binding and some housekeeping artifacts.
For the kinetic experiments, HB22.7 and RHOv2ACD/RKA were prepared as two dilution series, starting at 22 nM and 100 nM, then diluted three- and two-fold, respectively, down to final concentrations of 0.03 nM and 0.39 nM in HBS-EP buffer (BIAcore, Inc., consisting of the following: 10 mM HEPES buffer, pH7.4, 150 mM NaCl, 3 mM EDTA, and 0.005% P20). Each concentration of IgG was then injected over both the CD22 and reference cell surfaces, which are connected in series. Between injections, surfaces were regenerated with a 1-minute injection of 3M MgCl2.
A general note: SPR reads the build-up and loss of mass on a sensor chip optically.

The target in experiment [3] is T1, human CD22 (hCD22) expressed on the …. Put plainly: binding to BHK-hCD22 cells. How it is done: The ability of chHB227 and its humanized variants to bind hCD22 was assessed in a cell based CD22 binding assay utilizing BHK cells expressing cell-surface human CD22 as a capture agent. Untransfected BHK cells not expressing hCD22 served as a control for non-specific binding. The BHK and BHK-CD22 lines were grown in DMEM supplemented with 10% Fetal Clone I and antibiotics. G418/Geneticin (0.75 mg/ml) was also added to the growth medium for BHK-CD22 only. The standard NCI protocol was used for the binding assay.

One may read the Kd as a measure of binding affinity in units of concentration. Low readings indicate tighter binding, high ones weaker binding. By koff is commonly meant the rate constant with which the complex falls apart. Usually kon stands for a measure of how fast the partners come together.

B1: humanized antibody HB227RHF + HB227RKC (antibody, V domains shown)
VH: QVQLQESGPALVKPTQTLTLTCTVSGFSLSDYGVNWIRQPPGKALEWLGIIWGDGRTDYNSALKSRLSISKDNSKNQVVLRMTNVDPVDTATYFCARAPGNRAMEYWGQGTVVTVSS
VL: DIVMTQSPSSLSASVGDRVTITCKASQSVTNDVAWYQQKPGKAPKLLIYYASNRYTGVPDRFSGSGYGTDFTLTISSLQPEDFATYFCQQDYRSPWTFGGGTKVEIKR
notes: Human IgG1/kappa, COS-7 supernatant; also called RHF+RKC; humanized (RHF+RKC) antibody
With B1, the binding result in experiment [1] is “binds”.

B2: antibody of chimeric HB22.7 heavy chain (chH) with HB227RKA light chain variable region (antibody, V domains shown)
VH: QVQLKESGPGLVAPSQSLSITCTVSGFSLSDYGVNWVRQIPGKGLEWLGIIWGDGRTDYNSALKSRLNISKDNSKSQVFLKMNSLKADDTARYYCARAPGNRAMEYWGQGTSVTVSS
VL: DIVMTQSPSSLSASVGDRVTITCKASQSVTNDVAWYQQKPGKAPKLLIYYASNRYTGVPSRFSGSGSGTDFTLTISSLQPEDFATYYCQQDYRSPWTFGGGTKVEIK
notes: Human IgG1/kappa, COS-7 supernatant; VL entry may include the DPK018 leader; also called chH+RKA
In the case of B2, in experiment [1], the binding result is on record as “binds”.

B3: humanized anti-hCD22 antibody RHOv2ACD/RKA (antibody, V domains shown)
VH: QVQLEESGGGVVRPGRSLRLSCAASGFTFSDYGVNWIRQAPGKGLEWVTIIWGDGRTDYNSALKSRFTVSRNNSNNTLSLQMNSLTTEDTAVYYCVRAPGNRAMEYWGQGVLVTVSS
VL: B2 VL
modifications: Labelled with Alexa Fluor 488 or 647 in some flow cytometry assays; unlabelled IgG in the BIAcore runs.
notes: VH keeps only the D30S back mutation; Labelled with Alexa Fluor 488 or 647 in some flow cytometry assays; also called HB227RHOv2ACD + HB227RKA; RHOvACD/RKA
For B3, in experiment [2], the Kd amounted to 22 nM, the koff worked out at 0.00069 s⁻¹ and the kon was determined as 32000 M⁻¹ s⁻¹.

B4: humanized antibody HB227RHOv2ABCD + HB227RKA (antibody, V domains shown)
VH: B3 VH with S30D
VL: B2 VL
notes: VH without back mutations; Human IgG1/kappa, COS-7 supernatant; also called RHOv2ABCD+RKA
Take B4: the binding result in experiment [3] is “binds”.
